Test results from publication doi:10.1101/2022.04.26.489478.

Biological target: GST-GABARAP (human), O95166
Assay: microscopy-based on-bead protein-protein interaction assay
Details: remark: other sources report otherwise

GST-GABARAP (human), O95166, sequence (O95166 whole entry): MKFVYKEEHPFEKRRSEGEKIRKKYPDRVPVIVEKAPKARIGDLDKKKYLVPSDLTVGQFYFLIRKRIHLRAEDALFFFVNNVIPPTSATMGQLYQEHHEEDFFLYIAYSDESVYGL

B1: mCherry tagged HsC53^sAIM, Q96JB5 1-506 (natural protein)
chain: MEDHQHVPIDIQTSKLLDWLVDRRHCSLKWQSLVLTIREKINAAIQDMPESEEIAQLLSGSYIHYFHCLRILDLLKGTEASTKNIFGRYSSQRMKDWQEIIALYEKDNTYLVELSSLLVRNVNYEIPSLKKQIAKCQQLQQEYSRKEEECQAGAAEMREQFYHSCKQYGITGENVRGELLALVKDLPSQLAEIGAAAQQSLGEAIDVYQASVGFVCESPTEQVLPMLRFVQKRGNSTVYEWRTGTEPSVVERPHLEELPEQVAEDAIDAGDFGVEAVSEGTDSGISAEAAGIDAGIFPESDSKDPGGDGIDAGDDAVALQITVLEAGTQAPEGVARGPDALTLLEYTETRNQFLDELMELEIFLAQRAVELSEEADVLSVSQFQLAPAILQGQTKEKMVTMVSVLEDLIGKLTSLQLQHLFMILASPRYVDRVTEFLQQKLKQSQLLALKKELMVQKQQEALEEQAALEPKLDLLLEKTKELQKLIEADISKRYSGRPVNLMGTSL
**Q.** Which percent recruited less than wild type C53 does the source give for B1 here?
**A.** 78%
